In patent US20240261333A1, “NOVEL TARGETS FOR ENHANCING ANTI-TUMOR IMMUNITY” (THE BROAD INSTITUTE, INC., priority 2021, published 2024):

Target: T1, B3GNT2 (Homo sapiens, UniProt Q9NY97)
T1 construct: The respective ORFs of candidate genes [CD274 (NM_014143), MCL1 (NM_021960), JUNB (NM_002229), and B3GNT2 (NM_006577)] were synthesized; expressed in transfected cells; host or cells: A375 melanoma cells (lentiviral ORF overexpression)
T1 sequence (Q9NY97 1-397): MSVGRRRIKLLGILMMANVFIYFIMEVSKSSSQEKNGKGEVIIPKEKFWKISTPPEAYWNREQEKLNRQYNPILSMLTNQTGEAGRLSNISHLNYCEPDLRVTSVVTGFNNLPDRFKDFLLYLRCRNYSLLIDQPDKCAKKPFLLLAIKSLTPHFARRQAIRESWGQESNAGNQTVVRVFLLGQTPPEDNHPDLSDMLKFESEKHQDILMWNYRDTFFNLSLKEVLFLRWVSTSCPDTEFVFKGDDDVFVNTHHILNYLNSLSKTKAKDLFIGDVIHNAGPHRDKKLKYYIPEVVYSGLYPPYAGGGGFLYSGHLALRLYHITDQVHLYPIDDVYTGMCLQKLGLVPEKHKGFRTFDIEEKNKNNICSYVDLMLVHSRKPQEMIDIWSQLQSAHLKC
Assay: Co-IP of FLAG-tagged B3GNT2 followed by mass spectrometry
Type: cell-based
Parameters: C-term IgG / C-term flag: unit not given here
Description: Cells were plated in 10-cm cell culture dishes and grown to 60-80% confluency. For each condition, two biological replicates were harvested for co-IP. Cells were washed with PBS and 4 mL of lysis buffer (20 mM HEPES, 1% Triton X-100, 150 mM NaCl, 1 mM EDTA, and 10% glycerol) containing protease inhibitor cocktail was added. Cells were scraped and lysate was incubated at 4° C. under rotary agitation for 1 h. Lysate was centrifuged at 14,000×g for 10 min at 4° C. Supernatant was transferred to a new tube and an aliquot was taken as the input. […] For Western blots, 10 μg/mL Chicken Anti-FLAG (Aves labs ET-DY100) and IgY control (R&D Systems AB-101-C) antibodies were biotinylated (Thermo Fisher Scientific 90407) and added to the respective conditions. Lysates with antibodies were incubated at 4° C. under rotary agitation overnight. For each mL of lysate, 50 μL of Pierce Protein A/G Magnetic Beads (Mass spectrometry; Thermo Fisher Scientific 88803) or Pierce Streptavidin Magnetic Beads (Western blot; Thermo Fisher Scientific 88817) was washed twice with lysis buffer. Lysates with antibodies were added to the beads and incubated at 4° C. under rotary agitation for 4 h. Beads were washed with lysis buffer 3 times and resuspended in lysis buffer for storage. […] This solution was subjected to solid phase extraction to concentrate the peptides and remove unwanted reagents followed by injection onto a Shimadzu HPLC with fraction collector. Eight fractions were collected and after concentration were injected on a Waters NanoAcquity HPLC equipped with a self-packed Aeris 3 μm C18 analytical column 0.075 mm by 20 cm, (Phenomenex). Peptides were eluted using standard reverse-phase gradients. The effluent from the column was analyzed using a Thermo Orbitrap Elite mass spectrometer (nanospray configuration) operated in a data dependent manner for 54 minutes. […] Scaffold Q+S (Proteome Software) was used to provide consensus reports for the identified proteins.

[1] = Co-IP with FLAG antibody, C-terminally FLAG-tagged B3GNT2, mass spectrometry count, unit not given
[2] = Co-IP with FLAG antibody, N-terminally FLAG-tagged B3GNT2, mass spectrometry count, unit not given
[3] = Co-IP with IgG control antibody, C-terminally FLAG-tagged B3GNT2, mass spectrometry count, unit not given
[4] = Co-IP with IgG control antibody, N-terminally FLAG-tagged B3GNT2, mass spectrometry count, unit not given
[5] = Co-IP followed by mass spectrometry of B3GNT2, C-term tag, FLAG pull-down
[6] = Co-IP followed by mass spectrometry of B3GNT2, C-term tag, IgG pull-down
[7] = Co-IP followed by mass spectrometry of B3GNT2, N-term tag, FLAG pull-down
[8] = Co-IP followed by mass spectrometry of B3GNT2, N-term tag, IgG pull-down

Substance	C-term flag [1]	N-term FLAG [2]	C-term IgG [3]	N-term IgG [4]	C-term flag [5]	C-term IgG [6]	N-term FLAG [7]	N-term IgG [8]
PSMD3	0	3	0	0				
SPTAN1					3	0	0	0
IPO13	2	0	0	0				
PSMA4	0	2	0	0				
PCBP1	4	4	3	0				
DNAJA2					3	0	3	0
SEC16A	0	2	0	0				
TFAM					3	0	0	0
ECPAS	0	3	0	0				
PCMT1					2	0	4	0
HADHA	2	0	0	0				
CLTC					7	5	6	6
SLC27A4	2	0	0	0				
ABCD1	2	0	0	0				
PPIA	0	6	0	0				
UGGT1	5	2	0	0				
HDGFL2	2	0	0	0				
P01837.1					146	108	89	87
RAB1B	2	0	0	0				
P4HB	23	3	0	0				
LAMC1					4	0	0	0
EIF4G1					6	2	2	2

Substance	C-term flag [1]	N-term FLAG [2]	C-term IgG [3]	N-term IgG [4]	C-term flag [5]	C-term IgG [6]	N-term FLAG [7]	N-term IgG [8]
HNRNPU					12	0	0	2
TAF15					10	4	5	10
PRKDC	11	24	0	0				
ATM	0	3	0	0				
SSRP1					6	0	0	0
DNAJA1	10	6	0	0				
TUBB2A	0	128	0	0				
CTSD	4	3	0	3				
RNASE1	2	0	0	0				
S100A9	9	18	5	0				
S100A8	3	15	5	4				
TNKS1BP1					8	2	2	4
HBB					0	0	4	0
VIM					411	337	402	452
ATP5F1B					4	0	2	0
TUBB4B	119	161	13	0				
MON2	3	0	0	0				
PABPC1					41	30	31	37
SUPT16H					3	0	0	0
TUBB3	82	115	0	0				
TOR1AIP2	2	0	0	0				
CCT3					5	0	0	0
